The target in data set [1] is T1, topo VI holoenzyme WT (Methanosarcina mazei) (UniProt Q8PUB7+Q8PUB8).
T1 sequence 1: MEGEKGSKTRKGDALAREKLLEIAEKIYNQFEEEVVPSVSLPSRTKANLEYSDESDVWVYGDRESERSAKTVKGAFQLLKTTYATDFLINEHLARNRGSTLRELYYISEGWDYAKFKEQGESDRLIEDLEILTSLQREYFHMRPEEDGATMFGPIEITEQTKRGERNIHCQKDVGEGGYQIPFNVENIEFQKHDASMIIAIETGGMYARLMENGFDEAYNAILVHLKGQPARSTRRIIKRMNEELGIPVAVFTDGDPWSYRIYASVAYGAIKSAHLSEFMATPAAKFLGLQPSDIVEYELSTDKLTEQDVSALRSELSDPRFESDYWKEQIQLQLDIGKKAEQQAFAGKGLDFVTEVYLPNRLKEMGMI
T1 sequence 2: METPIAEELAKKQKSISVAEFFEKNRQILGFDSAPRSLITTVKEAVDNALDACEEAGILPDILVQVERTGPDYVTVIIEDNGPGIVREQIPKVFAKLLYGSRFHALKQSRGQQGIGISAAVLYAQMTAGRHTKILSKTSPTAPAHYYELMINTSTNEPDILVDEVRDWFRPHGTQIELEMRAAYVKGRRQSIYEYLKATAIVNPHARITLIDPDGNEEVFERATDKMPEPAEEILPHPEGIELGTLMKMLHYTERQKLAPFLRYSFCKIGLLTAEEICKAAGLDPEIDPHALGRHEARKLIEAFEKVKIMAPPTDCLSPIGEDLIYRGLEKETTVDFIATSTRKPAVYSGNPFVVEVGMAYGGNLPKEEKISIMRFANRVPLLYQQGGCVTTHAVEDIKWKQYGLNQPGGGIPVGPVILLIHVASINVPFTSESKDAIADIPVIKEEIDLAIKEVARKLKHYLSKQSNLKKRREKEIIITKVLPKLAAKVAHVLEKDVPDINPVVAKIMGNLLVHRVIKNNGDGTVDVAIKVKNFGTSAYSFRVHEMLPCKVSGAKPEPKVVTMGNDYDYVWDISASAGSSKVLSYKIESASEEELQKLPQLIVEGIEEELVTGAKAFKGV
Description: fluorescence anisotropy. As to conditions: FA: 20 nM probe, 50 mM K-glutamate, 20 mM HEPES-KOH pH 7.5, 10 mM MgCl2, 5% glycerol, 1 mM TCEP, 0.1 mg/mL BSA; incubated on ice, read at ambient temperature …. For orientation: In fluorescence polarisation assays a small probe gives low polarisation when free and higher when bound to something large.

Data set [2] concerns the target T2, topo VI KGRR-AAA K186A;R188A;R189A (Methanosarcina mazei) (UniProt Q8PUB7+Q8PUB8).
T2 sequence 1: T1 sequence 1
T2 sequence 2: T1 sequence 2 with K186A, R188A, R189A
Description: competition (fluorescence anisotropy). As to conditions: vs FAM 70 bp; FA: 20 nM probe, 50 mM K-glutamate, 20 mM HEPES-KOH pH 7.5, 10 mM MgCl2, 5% glycerol, 1 mM TCEP, 0.1 mg/mL BSA; incubated on ice, read at ambient temperature ….

Data set [3] has as its target T3, topo VI H2TH-EEE R263E;K268E;K308E (Methanosarcina mazei) (UniProt Q8PUB7+Q8PUB8).
T3 sequence 1: T1 sequence 1
T3 sequence 2: T1 sequence 2 with R263E, K268E, K308E
As to the kind of experiment: competition (fluorescence anisotropy). To be noted: vs FAM 70 bp; FA: 20 nM probe, 50 mM K-glutamate, 20 mM HEPES-KOH pH 7.5, 10 mM MgCl2, 5% glycerol, 1 mM TCEP, 0.1 mg/mL BSA; incubated on ice, read at ambient temperature ….

Data set [4] addresses T4, topo VI H2TH-AAA R263A;K268A;K308A (Methanosarcina mazei) (UniProt Q8PUB7+Q8PUB8).
T4 sequence 1: T1 sequence 1
T4 sequence 2: T1 sequence 2 with R263A, K268A, K308A
Description: competition (fluorescence anisotropy). To be noted: vs FAM 70 bp; FA: 20 nM probe, 50 mM K-glutamate, 20 mM HEPES-KOH pH 7.5, 10 mM MgCl2, 5% glycerol, 1 mM TCEP, 0.1 mg/mL BSA; incubated on ice, read at ambient temperature ….

Data set [5] deals with T1, topo VI holoenzyme WT (Methanosarcina mazei). As to the kind of experiment: competition (fluorescence anisotropy). To be noted: vs FAM 70 bp; FA: 20 nM probe, 50 mM K-glutamate, 20 mM HEPES-KOH pH 7.5, 10 mM MgCl2, 5% glycerol, 1 mM TCEP, 0.1 mg/mL BSA; incubated on ice, read at ambient temperature ….
Data set [6] deals with T5, topo VI KGRR-EEE K186E;R188E;R189E (Methanosarcina mazei) (UniProt Q8PUB7+Q8PUB8).
T5 sequence 1: T1 sequence 1
T5 sequence 2: T1 sequence 2 with K186E, R188E, R189E
Description: competition (fluorescence anisotropy). As to conditions: vs FAM 70 bp; FA: 20 nM probe, 50 mM K-glutamate, 20 mM HEPES-KOH pH 7.5, 10 mM MgCl2, 5% glycerol, 1 mM TCEP, 0.1 mg/mL BSA; incubated on ice, read at ambient temperature ….

Data set [7] deals with the molecule itself. Description: FRET or BRET; bulk FRET between Alexa555 and Alexa647 on Cys155 of the two Top6B in the holoenzyme; 200 nM topo VI with 100 uM bp sheared salmon-sperm (short linear) DNA, before and over time after 1 mM AMPPNP; 50 mM potassium glutamate, 20 mM HEPES-KOH pH 7.5, 10 mM MgCl2. For orientation: In BRET a luciferase serves as donor, and the signal depends on an acceptor being close.

Data set [8] deals with the molecule itself. Description: FRET or BRET; bulk FRET between Alexa555 and Alexa647 on Cys155 of the two Top6B in the holoenzyme; 200 nM topo VI with 100 uM bp supercoiled plasmid DNA, before and over time after 1 mM AMPPNP; 50 mM potassium glutamate, 20 mM HEPES-KOH pH 7.5, 10 mM MgCl2.

Substitutions are numbered along the chain they refer to.

For the molecule 80 bp duplex, the binding signal (fold Kd of 60 bp duplex) in data set [1] stood at 2. The term Ki denotes the dissociation constant of the complex between target and ligand, obtained from inhibition or displacement. A lower Ki goes with a stronger hold on the target. Take pSG483 negatively supercoiled plasmid: the Ki stood at 7.2 nM in data set [2]; 10 nM in data set [3]; 1.3 nM in data set [4]; 0.6 nM in data set [5]; 14.7 nM in data set [6].

B1: M. mazei Top6B cyslite-155C, Alexa555/Alexa647-labeled, in the topo VI holoenzyme (enzyme, Methanosarcina mazei)
chain: T1 sequence 2 with T155C, C267S, C278A, C316A, C550A
modifications: Alexa Fluor 555 C2 maleimide or Alexa Fluor 647 C2 maleimide on Cys155
notes: Top6B of Methanosarcina mazei topo VI, 'cys-lite' with Thr155 changed to cysteine; Stood in the assay as part of the A2B2 holoenzyme with Top6A; population is a mix of donor-acceptor (50%), acceptor-acceptor (25%) and donor-donor (25%) labeled enzymes; also called topo VI^cyslite-155C; TopoVI^cyslite-155C; not shown: His6, N-terminal, cleaved
Turning to B1, the binding result in data set [7] is “binds”.

B2: M. mazei Top6B KGRR^AAA cyslite-155C, Alexa555/Alexa647-labeled, in the topo VI holoenzyme (enzyme, Methanosarcina mazei)
chain: T1 sequence 2 with T155C, K186A, R188A, R189A, C267S, C278A, C316A, C550A
modifications: Alexa Fluor 555 C2 maleimide or Alexa Fluor 647 C2 maleimide on Cys155
notes: Top6B of Methanosarcina mazei topo VI, cyslite-155C with the KGRR^AAA mutations; Stood in the assay as part of the A2B2 holoenzyme with Top6A; also called Top6AB-KGRR^AAA cyslite-155C; KGRR^AAA FRET assay construct; not shown: His6, N-terminal, cleaved
B2: the binding result in data set [8] is given as “binds”.

B3: M. mazei Top6B H2TH^AAA cyslite-155C, Alexa555/Alexa647-labeled, in the topo VI holoenzyme (enzyme, Methanosarcina mazei)
chain: T1 sequence 2 with T155C, R263A, C267S, K268A, C278A, K308A, C316A, C550A
modifications: Alexa Fluor 555 C2 maleimide or Alexa Fluor 647 C2 maleimide on Cys155
notes: Top6B of Methanosarcina mazei topo VI, cyslite-155C with the H2TH^AAA mutations; Stood in the assay as part of the A2B2 holoenzyme with Top6A; also called Top6AB-H2TH^AAA cyslite-155C; not shown: His6, N-terminal, cleaved
As to B3, the binding result in data set [8] is listed as “binds”.

The values are drawn from paper PMC5922973, “Topoisomerase VI senses and exploits both DNA crossings and bends to facilitate strand passage” (eLife, 2018).
